Literature values in publication PMC5956149.

Target: CheA (Escherichia coli) (UniProt P07363)
Conditions: cited from earlier work

For CheA (from UniProt P07363), the Kd is given as 0.4 µM.
